Source: PMC10957929
Where a chain is given by its changes, count along the chain named.

Columns and labels:
[1] = molecular target: T1, GST-DRG9Nip (F267G) F267G (Oryza sativa ssp. japonica cv. Nipponbare) (UniProt Q69P58); assay: EMSA; conditions: 20 mM Hepes pH 7.5, 20 mM KCl2 (so in the source), 1 mM MgCl2, 10 mM ZnCl2, 5 mM DTT, 10% glycerol, 0.1% NP-40, room temperature, 1 h; 6% native PAGE, 0.5x TBE
T1 sequence: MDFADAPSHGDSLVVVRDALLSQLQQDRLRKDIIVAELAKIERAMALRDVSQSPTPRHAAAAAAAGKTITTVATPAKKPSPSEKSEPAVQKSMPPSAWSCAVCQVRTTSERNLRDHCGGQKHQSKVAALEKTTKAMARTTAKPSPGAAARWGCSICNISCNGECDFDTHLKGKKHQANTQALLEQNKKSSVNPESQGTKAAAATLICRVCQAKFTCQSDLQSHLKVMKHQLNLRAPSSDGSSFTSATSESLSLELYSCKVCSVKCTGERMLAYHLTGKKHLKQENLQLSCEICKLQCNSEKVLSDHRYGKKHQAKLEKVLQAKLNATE

[2] = molecular target: T2, GST-DRG9Nip (N186S) N186S (Oryza sativa ssp. japonica cv. Nipponbare) (UniProt Q69P58); assay: EMSA; conditions: 20 mM Hepes pH 7.5, 20 mM KCl2 (so in the source), 1 mM MgCl2, 10 mM ZnCl2, 5 mM DTT, 10% glycerol, 0.1% NP-40, room temperature, 1 h; 6% native PAGE, 0.5x TBE
T2 sequence: T1 sequence with N186S, G267F

Sequence: GGGCUCAAAUUAAUUAGCCAGUGAAAAAUCAAAUUACAGAGUUGCUUAAUUUUUUUACUAGUAGAACGCAACAGUAAAAAGAAUUAACAGCAGUGAAUUAUUAGUUAAUUAGCUAGGGAGUUGAAAUAGUUUAGCGGUCAUGCACUACUGAUUUUUAAUUAGUGCAGACAACGACCGCGUGUGUGUAUAUGCAUGUAUACCUUUUACUGUAUCUUCAGAUUGUGUAUAUAUAUCAUAUAUGUACAGGAAAAGAUUUAUAUAUCAUACAUAUUUUGUUGU [OsNCED4 3'-UTR RNA]
- binding [1]: binds more weakly
- binding [2]: binds
